Results reported in publication doi:10.1101/583542 (bioRxiv, 2019).

Experiments:
Experiment in all cases: split reporter
[1] = target: NRT2.1 S501A, rBiFC fusion (Arabidopsis thaliana, UniProt O82811 1-530, S501A)
[2] = target: NRT2.1 S501D, rBiFC fusion (Arabidopsis thaliana, UniProt O82811 1-530, S501D)
[3] = target: NRT2.1 wild type, rBiFC fusion (Arabidopsis thaliana, UniProt O82811 1-530)
Chain of NRT2.1 wild type, rBiFC fusion (O82811 whole entry, the tested form may be a part): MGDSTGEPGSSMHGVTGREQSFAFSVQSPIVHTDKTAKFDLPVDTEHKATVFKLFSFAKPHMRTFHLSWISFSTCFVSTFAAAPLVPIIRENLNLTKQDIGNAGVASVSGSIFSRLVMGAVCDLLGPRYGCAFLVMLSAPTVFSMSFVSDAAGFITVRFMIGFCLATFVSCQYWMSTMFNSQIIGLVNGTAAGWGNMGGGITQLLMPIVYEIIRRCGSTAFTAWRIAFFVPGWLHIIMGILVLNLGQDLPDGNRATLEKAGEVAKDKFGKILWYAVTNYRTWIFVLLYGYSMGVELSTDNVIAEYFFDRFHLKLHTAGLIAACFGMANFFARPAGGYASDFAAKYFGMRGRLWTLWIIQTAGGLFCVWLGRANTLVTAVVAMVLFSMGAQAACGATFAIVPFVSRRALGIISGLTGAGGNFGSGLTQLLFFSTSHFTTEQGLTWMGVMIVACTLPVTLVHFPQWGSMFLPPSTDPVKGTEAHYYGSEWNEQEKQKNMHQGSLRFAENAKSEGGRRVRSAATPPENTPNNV

Chain of NRT2.1 S501D, rBiFC fusion (O82811 whole entry S501D, the tested form may be a part): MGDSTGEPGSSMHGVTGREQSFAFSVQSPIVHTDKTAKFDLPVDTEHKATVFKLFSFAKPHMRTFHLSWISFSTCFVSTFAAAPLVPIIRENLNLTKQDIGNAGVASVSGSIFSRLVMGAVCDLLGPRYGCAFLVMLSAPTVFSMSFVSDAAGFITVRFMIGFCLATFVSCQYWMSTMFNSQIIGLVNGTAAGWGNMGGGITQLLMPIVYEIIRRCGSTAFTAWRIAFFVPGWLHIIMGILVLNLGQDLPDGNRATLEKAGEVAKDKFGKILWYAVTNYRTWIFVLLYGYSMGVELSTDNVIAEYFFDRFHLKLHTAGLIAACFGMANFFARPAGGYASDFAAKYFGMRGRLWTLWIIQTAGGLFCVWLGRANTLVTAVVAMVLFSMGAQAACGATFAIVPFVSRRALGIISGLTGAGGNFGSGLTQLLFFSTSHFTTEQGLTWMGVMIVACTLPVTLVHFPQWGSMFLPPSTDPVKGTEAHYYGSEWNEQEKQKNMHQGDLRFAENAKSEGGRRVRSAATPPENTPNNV
Chain of NRT2.1 S501A, rBiFC fusion (O82811 whole entry S501A, the tested form may be a part): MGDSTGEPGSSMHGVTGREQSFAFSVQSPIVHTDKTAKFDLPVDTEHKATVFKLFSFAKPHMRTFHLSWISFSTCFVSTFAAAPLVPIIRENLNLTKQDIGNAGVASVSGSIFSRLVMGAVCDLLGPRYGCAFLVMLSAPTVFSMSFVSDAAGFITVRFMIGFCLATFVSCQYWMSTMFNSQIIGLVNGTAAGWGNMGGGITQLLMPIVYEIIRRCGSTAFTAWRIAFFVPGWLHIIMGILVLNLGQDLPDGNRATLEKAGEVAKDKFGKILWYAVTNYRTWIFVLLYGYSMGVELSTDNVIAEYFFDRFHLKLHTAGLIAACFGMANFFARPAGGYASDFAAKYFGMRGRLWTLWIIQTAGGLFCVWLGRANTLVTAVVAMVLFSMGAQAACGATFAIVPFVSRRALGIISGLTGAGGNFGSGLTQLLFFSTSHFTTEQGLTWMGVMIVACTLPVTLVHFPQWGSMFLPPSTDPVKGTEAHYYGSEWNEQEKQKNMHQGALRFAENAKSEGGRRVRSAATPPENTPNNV

YFP fluorescence as percent of RFP fluorescence (rBiFC) [1]: ~50 % of RFP fluorescence
YFP fluorescence as percent of RFP fluorescence (rBiFC) [2]: ~50 % of RFP fluorescence
YFP fluorescence as percent of RFP fluorescence (rBiFC) [3]: ~40 % of RFP fluorescence
B1: NAR2.1, rBiFC fusion (natural protein, Arabidopsis thaliana, UniProt Q9FGS5 23-210, looked up)
chain: AEKVRLFKELDKGALDVTTKPSREGPGVVLDAGKDTLNITWTLSSIGSKREAEFKIIKVKLCYAPPSQVDRPWRKTHDELFKDKTCPHKIIAKPYDKTLQSTTWTLERDIPTGTYFVRAYAVDAIGHEVAYGQSTDDAKKTNLFSVQAISGRHASLDIASICFSVFSVVALVVFFVNEKRKAKIEQSK
